Experimental findings from patent publication US10131702B2, “Glucagon-GLP-1-GIP triple agonist compounds” (priority 2013, dated 2018) are described below.

The term EC50 denotes the concentration needed to bring the measured effect to its halfway point. Broadly, the half-life is how long it takes for the measured level to halve.

Like-named read-outs stand apart in the source and are kept apart here. Numbered stars: 1 amine (or outer) side, 2 acyl side, 3 side chain; on linkers, the order of the positions; unused ones are H or OH. Square brackets hold non-standard residues; d marks the D form. Side chains are listed from the residue outwards. Peptide text beside a SMILES is read from it. * marks the point of attachment. C18 diacid = O=C(O)CCCCCCCCCCCCCCCCC(=O)*; γGlu = O=C(O)[C@H](CCC(=O)[*:2])N[*:1]; Stearoyl = CCCCCCCCCCCCCCCCCC(=O)*; Aib = CC(C)(N)C(=O)O A value given as a limit tells only on which side of the number the result lay.

One data set deals with T1, human GIP R (Homo sapiens, UniProt P48546).
T1 construct: expressed in transfected cells
T1 sequence (P48546 22-466): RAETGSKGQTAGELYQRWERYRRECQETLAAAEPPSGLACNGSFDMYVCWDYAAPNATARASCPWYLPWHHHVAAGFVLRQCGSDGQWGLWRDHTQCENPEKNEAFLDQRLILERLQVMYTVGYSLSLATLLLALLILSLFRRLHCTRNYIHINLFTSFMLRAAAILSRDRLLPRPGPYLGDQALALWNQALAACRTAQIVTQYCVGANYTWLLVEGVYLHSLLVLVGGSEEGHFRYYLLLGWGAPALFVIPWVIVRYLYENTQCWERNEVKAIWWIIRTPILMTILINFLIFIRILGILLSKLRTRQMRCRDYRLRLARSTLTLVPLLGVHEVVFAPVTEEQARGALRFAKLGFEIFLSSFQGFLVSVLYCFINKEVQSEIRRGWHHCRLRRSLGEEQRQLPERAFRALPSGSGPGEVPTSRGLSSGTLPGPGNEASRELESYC
The data set can be described thus: cAMP induction in HEK293 cells expressing human GIP R (AlphaScreen cAMP kit). Format: cell-based. The settings on record: read-out: GIP R (EC50 in nM). In general terms: Alpha assays give light when donor and acceptor beads are brought close together.

Another data set has as its target T2, human GLP-1 R (Homo sapiens, UniProt P43220).
T2 construct: expressed in transfected cells
The data set can be described thus: cAMP induction in HEK293 cells expressing human GLP-1 R (AlphaScreen cAMP kit). Format: cell-based. The following applies: average EC50, cAMP, HEK293 cells expressing human GLP-1 R, read-out: GLP1 R (EC50 in nM).

For a further data set, the target named is T3, human GCG R (Homo sapiens, UniProt P47871).
T3 construct: expressed in transfected cells
T3 sequence (P47871 26-477): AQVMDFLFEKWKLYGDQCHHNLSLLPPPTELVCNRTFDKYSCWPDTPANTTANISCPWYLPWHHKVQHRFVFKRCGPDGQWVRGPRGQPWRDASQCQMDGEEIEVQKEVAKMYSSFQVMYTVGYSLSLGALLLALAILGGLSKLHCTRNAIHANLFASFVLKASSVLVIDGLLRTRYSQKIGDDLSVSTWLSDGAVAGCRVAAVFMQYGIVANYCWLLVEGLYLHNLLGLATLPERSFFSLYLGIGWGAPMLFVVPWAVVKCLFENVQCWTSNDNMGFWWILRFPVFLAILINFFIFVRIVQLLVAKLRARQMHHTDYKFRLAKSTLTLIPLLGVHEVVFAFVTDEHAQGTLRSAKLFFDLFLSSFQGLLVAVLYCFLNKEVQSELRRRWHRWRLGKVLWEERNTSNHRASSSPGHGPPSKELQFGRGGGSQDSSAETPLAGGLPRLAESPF
Description: cAMP induction in HEK293 cells expressing human GCG R (AlphaScreen cAMP kit). Type of data set: cell-based. The following applies: Table 2; average EC50, cAMP, HEK293 cells expressing human GCG R; read-out: GCG R (EC50 in nM).

Another data set in a line: in vivo. Further details: species or system C57BL/6J mice. The following applies: male, C57BL/6J, mouse, iv, 200 nmol/kg. The source says: Pharmacokinetics of Selected Compounds in Mice Method C57BL/6J mice (males with a body weight of approximately 25 g) were given a single intravenous (i.v.) bolus of each peptide to be tested. […] Blood samples were drawn by sublingual bleeding. The dosing vehicle was a phosphate buffer containing mannitol (pH 7.5). At each sampling time point, samples from two mice were drawn, i.e. 16 mice were included for each compound. The mice were euthanized immediately after blood sampling by cervical dislocation. Plasma samples were analyzed after solid phase extraction (SPE) or precipitation by liquid chromatography mass spectrometry (LC-MS/MS). Mean plasma concentrations were used for calculation of the pharmacokinetic parameters using the non-compartmental approach in Phoenix WinNonlin 6.3. Plasma terminal elimination half-life (T½) was determined as […] where λz is the magnitude of the slope of the log linear regression of the log concentration versus time profile during the terminal phase.

The target of data set [1] is human GIP receptor (human) (UniProt P48546). The data set can be described thus: cell-based or functional assay.
Data set [2] deals with human glucagon receptor (human) (UniProt P47871). Description: cell-based or functional assay.
Sequence of human glucagon receptor (human) (P47871 26-477): as above
Data set [3] concerns the target human glucagon-like peptide 1 receptor (human) (UniProt P43220). Description: cell-based or functional assay.
Data set [4] addresses T4, human GIP receptor (human, UniProt P48546 22-466).
T4 sequence: T1 sequence (P48546 22-466)
Description: cell-based or functional assay.

For data set [5], the target named is T5, human glucagon-like peptide 1 receptor (human, UniProt P43220 24-463). The data set can be described thus: cell-based or functional assay.
In data set [6] the target is T6, human glucagon receptor (human, UniProt P47871 26-477). Description: cell-based or functional assay.
T6 sequence (P47871 26-477): as above
Data set [7] deals with T4, human GIP receptor. The data set can be described thus: cell-based or functional assay. This is another data set of the same source.
Data set [8] addresses T5, human glucagon-like peptide 1 receptor. The data set can be described thus: cell-based or functional assay. The source holds these as a separate data set.
For data set [9], the target named is T6, human glucagon receptor. Description: cell-based or functional assay. This is another data set of the same source.
[10] abbreviates: Table 2b (most comprehensive data), average EC50, cAMP.
Setting [11] is: Table 2b (most comprehensive data).

Sequence of human glucagon-like peptide 1 receptor (human) (P43220 24-463): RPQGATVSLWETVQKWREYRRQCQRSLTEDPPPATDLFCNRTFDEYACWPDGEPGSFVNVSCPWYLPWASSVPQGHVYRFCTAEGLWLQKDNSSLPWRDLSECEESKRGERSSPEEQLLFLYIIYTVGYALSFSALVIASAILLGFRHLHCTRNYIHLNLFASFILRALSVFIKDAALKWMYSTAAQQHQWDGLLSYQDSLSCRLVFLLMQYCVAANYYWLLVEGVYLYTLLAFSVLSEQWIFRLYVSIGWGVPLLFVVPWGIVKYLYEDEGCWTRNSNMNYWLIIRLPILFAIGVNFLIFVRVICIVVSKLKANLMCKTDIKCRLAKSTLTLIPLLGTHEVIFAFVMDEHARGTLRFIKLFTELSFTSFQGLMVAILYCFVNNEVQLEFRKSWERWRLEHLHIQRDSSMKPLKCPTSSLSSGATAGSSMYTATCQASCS
T2 sequence (P43220 24-463): as above

Regarding `CCCCCCCCCCCCCCCC(=O)N[C@@H](CCC(=O)NCCCC[C@H](NC(=O)[C@H](CCC(=O)O)NC(=O)[C@H](CC(=O)O)NC(=O)[C@H](CC(C)C)NC(=O)[C@H](Cc1ccc(O)cc1)NC(=O)[C@@H](NC(=O)[C@H](CO)NC(=O)[C@H](Cc1ccc(O)cc1)NC(=O)[C@H](CC(=O)O)NC(=O)[C@H](CO)NC(=O)[C@@H](NC(=O)[C@H](Cc1ccccc1)NC(=O)[C@@H](NC(=O)CNC(=O)[C@H](CCC(N)=O)NC(=O)C(C)(C)NC(=O)[C@@H](N)Cc1ccc(O)cc1)[C@@H](C)O)[C@@H](C)O)[C@@H](C)CC)C(=O)N[C@@H](C)C(=O)N[C@@H](C)C(=O)N[C@@H](Cc1c[nH]cn1)C(=O)N[C@@H](CC(=O)O)C(=O)N[C@@H](Cc1ccccc1)C(=O)N[C@H](C(=O)N[C@@H](CCC(=O)O)C(=O)N[C@@H](Cc1c[nH]c2ccccc12)C(=O)N[C@@H](CC(C)C)C(=O)N[C@@H](CC(C)C)C(=O)N[C@@H](CO)C(=O)N[C@@H](C)C(N)=O)C(C)C)C(=O)O` [Compound 28] (HELM PEPTIDE1{Y.[Aib].Q.G.T.F.T.S.D.Y.S.I.Y.L.D.E.K.A.A.H.D.F.V.E.W.L.L.S.A.[am]}|PEPTIDE2{[CCCCCCCCCCCCCCCC(=O)[*:2]].[gGlu]}$PEPTIDE1,PEPTIDE2,17:R3-2:R2$$$V2.0), the concentration giving a half-maximal response (EC50) at human GIP R (Table 2, average EC50, cAMP) was 0.054 nM; on human GIP R (setting [10]), 0.058 nM; at human GLP-1 R (Table 2) it was 0.058 nM; on human GLP-1 R (setting [11]) it was 0.16 nM; on human GCG R, 0.16 nM. The same molecule had a half-life in “in vivo” of 468 min.
As to `CCCCCCCCCCCCCCCC(=O)N[C@@H](CCC(=O)NCCCC[C@H](NC(=O)[C@H](CCCCN)NC(=O)[C@H](CCC(=O)O)NC(=O)[C@H](CC(C)C)NC(=O)[C@H](Cc1ccc(O)cc1)NC(=O)[C@@H](NC(=O)[C@H](CO)NC(=O)[C@H](Cc1ccc(O)cc1)NC(=O)[C@H](CC(=O)O)NC(=O)[C@H](CO)NC(=O)[C@@H](NC(=O)[C@H](Cc1ccccc1)NC(=O)[C@@H](NC(=O)CNC(=O)[C@H](CCC(N)=O)NC(=O)C(C)(C)NC(=O)[C@@H](N)Cc1ccc(O)cc1)[C@@H](C)O)[C@@H](C)O)[C@@H](C)CC)C(=O)N[C@@H](C)C(=O)N[C@@H](C)C(=O)N[C@@H](CCCCN)C(=O)N[C@@H](CCC(=O)O)C(=O)N[C@@H](Cc1ccccc1)C(=O)N[C@H](C(=O)N[C@@H](CCC(=O)O)C(=O)N[C@@H](Cc1c[nH]c2ccccc12)C(=O)N[C@@H](CC(C)C)C(=O)N[C@@H](CC(C)C)C(=O)N[C@@H](CO)C(=O)N[C@@H](C)C(=O)NCC(=O)N1CCC[C@H]1C(=O)N[C@@H](CO)C(=O)N[C@@H](CO)C(=O)NCC(=O)N[C@@H](C)C(=O)N1CCC[C@H]1C(=O)N1CCC[C@H]1C(=O)N1CCC[C@H]1C(=O)N[C@@H](CO)C(N)=O)C(C)C)C(=O)O` [Compound 32] (HELM PEPTIDE1{Y.[Aib].Q.G.T.F.T.S.D.Y.S.I.Y.L.E.K.K.A.A.K.E.F.V.E.W.L.L.S.A.G.P.S.S.G.A.P.P.P.S.[am]}|PEPTIDE2{[CCCCCCCCCCCCCCCC(=O)[*:2]].[gGlu]}$PEPTIDE1,PEPTIDE2,17:R3-2:R2$$$V2.0), the 50% effective concentration (EC50) at human GIP R (Table 2, average EC50, cAMP) was found to be 0.044 nM; on human GIP R (setting [10]), 0.015 nM; at human GLP-1 R (Table 2), 0.015 nM; at human GLP-1 R (setting [11]) it was 0.15 nM; on human GCG R it was 0.15 nM. The half-life in the data set “in vivo” was 246 min.
“Exendin-4 (from UniProt P26349 48-86) (peptide)”: the figures for the EC50 (cAMP induction) in [1] and in data set [2] were 0.004 nM and more than 10 nM, respectively.

B1: Compound 51 (peptide)
peptide: H-Y[Aib]QGTFTSDYSIYLEKK([Peg3-Peg3-γGlu-C18 diacid])AQRAFVEWLLRA-NH2
In the case of B1, the EC50 (cAMP induction) in [1] was determined as 0.033 nM; in data set [2], 1.4 nM; in [3] it was 0.026 nM.

B2: Compound 48 (peptide)
peptide: H-Y[Aib]QGTFTSDLSIALEKK([Peg3-Peg3-γGlu-Stearoyl])AQRAFVEWLLAQK-NH2
Regarding B2, the results for the EC50 (cAMP induction) in data set [1], in data set [2] and in data set [3] were 0.013 nM, 0.19 nM and 0.013 nM, respectively.

B3: Compound 25 (peptide)
peptide: YAQGTFTSDYSKYLEKKAAKEFVEWLLSA
HELM: PEPTIDE1{Y.[Aib].Q.G.T.F.T.S.D.Y.S.K.Y.L.E.K.K.A.A.K.E.F.V.E.W.L.L.S.A.[am]}|PEPTIDE2{[CCCCCCCCCCCCCCCC(=O)[*:2]].[gGlu]}$PEPTIDE1,PEPTIDE2,12:R3-2:R2$$$V2.0
SMILES: CCCCCCCCCCCCCCCC(=O)N[C@@H](CCC(=O)NCCCC[C@H](NC(=O)[C@H](CO)NC(=O)[C@H](Cc1ccc(O)cc1)NC(=O)[C@H](CC(=O)O)NC(=O)[C@H](CO)NC(=O)[C@@H](NC(=O)[C@H](Cc1ccccc1)NC(=O)[C@@H](NC(=O)CNC(=O)[C@H](CCC(N)=O)NC(=O)C(C)(C)NC(=O)[C@@H](N)Cc1ccc(O)cc1)[C@@H](C)O)[C@@H](C)O)C(=O)N[C@@H](Cc1ccc(O)cc1)C(=O)N[C@@H](CC(C)C)C(=O)N[C@@H](CCC(=O)O)C(=O)N[C@@H](CCCCN)C(=O)N[C@@H](CCCCN)C(=O)N[C@@H](C)C(=O)N[C@@H](C)C(=O)N[C@@H](CCCCN)C(=O)N[C@@H](CCC(=O)O)C(=O)N[C@@H](Cc1ccccc1)C(=O)N[C@H](C(=O)N[C@@H](CCC(=O)O)C(=O)N[C@@H](Cc1c[nH]c2ccccc12)C(=O)N[C@@H](CC(C)C)C(=O)N[C@@H](CC(C)C)C(=O)N[C@@H](CO)C(=O)N[C@@H](C)C(N)=O)C(C)C)C(=O)O
On to B3, for which the “EC50 (cAMP induction)” value came out at 0.25 nM in the data set with human GIP receptor [4]; 0.28 nM in data set [5]; 0.3 nM in the data set with human glucagon receptor [6]; 0.25 nM with human GIP receptor [7]; 0.28 nM in data set [8]; 0.3 nM with human glucagon receptor [9].

B4: Compound 42 (peptide)
peptide: YXQGTFTSDYSIALDKKAQRAFVNWLVAXKPSSGAPPPS
modifications: X at 2 and 29 = Aib; Lys 17 as K(Octadecanoyl-isoGlu-Peg3-Peg3); C-terminal amide (-NH2)
Regarding B4, the results for the EC50 (cAMP induction) in data set [1], in data set [2] and in data set [3] were 0.015 nM, 0.032 nM and 0.036 nM, respectively.

B5: Compound 43 (peptide)
peptide: B4 peptide
modifications: X at 2 and 29 = Aib; Lys 17 as K(Octadecanoyl-Dapa-Peg3-Peg3); C-terminal amide (-NH2)
As to B5, the EC50 (cAMP induction) turned out to be 0.0098 nM in data set [1], 0.036 nM in [2] and 0.014 nM in [3].
